Experimental data published in patent US20250269025A1 (AVENCELL THERAPEUTICS, published 2025).

Key:
[1] = target: T1, CD123 on CD123 positive AML cells (Oci-AML3, Molm-13, MV4-11, primary AML cells) (human, UniProt P26951 19-378); experiment: cell-based or functional assay
[2] = target: T1, CD123 on CD123 positive AML cells …; experiment: cell-based or functional assay; remark: listed apart in the source

B1: targeting module according to SEQ ID No. 5 (bispecific antibody)
chain: EVQLQQSGPELVKPGASVKMSCKASGYTFTDYYMKWVKQSHGKSLEWIGDIIPSNGATFYNQKFKGKATLTVDRSSSTAYMHLNSLTSEDSAVYYCTRSHLLRASWFAYWGQGTLVTVSAASGGGGSGGGGSGGGGSDFVMTQSPSSLTVTAGEKVTMSCKSSQSLLNSGNQKNYLTWYLQKPGQPPKLLIYWASTRESGVPDRFTGSGSGTDFTLTISSVQAEDLAVYYCQNDYSYPYTFGGGTKLEIKAAARGDIVMTQSPDSLAVSLGERATINCKSSQSLLNSRTPKNYLAWYQQKPGQPPKLLIYWASTRKSGVPDRFSGSGSGTDFTLTISSLQAEDVAVYYCKQSYNLLTFGGGTKVEIKGGGGSGGGGSGASAAGGGGSGGGGSQVQLVQSGAEVKKPGASVKVSCKASGYTFTHYYIYWVRQAPGQGLEWMGGVNPSNGGTHFNEKFKSRVTMTRDTSISTAYMELSRLRSDDTAVYYCARSEYDYGLGFAYWGQGTLVTVSSGGGGSHHHHHHHH
notes: also called R-TM123; muCD123 + 5B9-VL-VH
[1]
  EC50 of R-TM123 for CD25 expression on CD4+ RevCAR-T, co-culture with MOLM-13, Donor #1: 2.6 pM
  EC50 of R-TM123 for CD25 expression on CD4+ RevCAR-T, co-culture with MOLM-13, Donor #2: 2.2 pM
  EC50 of R-TM123 for CD25 expression on CD4+ RevCAR-T, co-culture with MOLM-13, Donor #3: 2.3 pM
  EC50 of R-TM123 for CD25 expression on CD4+ RevCAR-T, co-culture with MOLM-13, Donor #4: 1.2 pM
  EC50 of R-TM123 for CD25 expression on CD4+ RevCAR-T, co-culture with MOLM-13, Mean: 2.1 pM
  EC50 of R-TM123 for CD25 expression on CD4+ RevCAR-T, co-culture with MV4-11, Donor #1: 8 pM
  EC50 of R-TM123 for CD25 expression on CD4+ RevCAR-T, co-culture with MV4-11, Donor #2: 6.5 pM
  EC50 of R-TM123 for CD25 expression on CD4+ RevCAR-T, co-culture with MV4-11, Donor #3: 10.2 pM
  EC50 of R-TM123 for CD25 expression on CD4+ RevCAR-T, co-culture with MV4-11, Donor #4: 8.9 pM
  EC50 of R-TM123 for CD25 expression on CD4+ RevCAR-T, co-culture with MV4-11, Mean: 8.4 pM
  EC50 of R-TM123 for CD25 expression on CD4+ RevCAR-T, co-culture with OCI-AML3, Donor #1: 2.9 pM
  EC50 of R-TM123 for CD25 expression on CD4+ RevCAR-T, co-culture with OCI-AML3, Donor #2: 3 pM
  EC50 of R-TM123 for CD25 expression on CD4+ RevCAR-T, co-culture with OCI-AML3, Donor #3: 2.3 pM
  EC50 of R-TM123 for CD25 expression on CD4+ RevCAR-T, co-culture with OCI-AML3, Donor #4: 2.4 pM
  EC50 of R-TM123 for CD25 expression on CD4+ RevCAR-T, co-culture with OCI-AML3, Mean: 2.6 pM
  EC50 of R-TM123 for CD25 expression on CD8+ RevCAR-T, co-culture with MOLM-13, Donor #1: 5.2 pM
  EC50 of R-TM123 for CD25 expression on CD8+ RevCAR-T, co-culture with MOLM-13, Donor #2: 4.3 pM
  EC50 of R-TM123 for CD25 expression on CD8+ RevCAR-T, co-culture with MOLM-13, Donor #3: 6 pM
  EC50 of R-TM123 for CD25 expression on CD8+ RevCAR-T, co-culture with MOLM-13, Donor #4: 2.1 pM
  EC50 of R-TM123 for CD25 expression on CD8+ RevCAR-T, co-culture with MOLM-13, Mean: 4.4 pM
  EC50 of R-TM123 for CD25 expression on CD8+ RevCAR-T, co-culture with MV4-11, Donor #1: 6.7 pM
  EC50 of R-TM123 for CD25 expression on CD8+ RevCAR-T, co-culture with MV4-11, Donor #2: 4.3 pM
  EC50 of R-TM123 for CD25 expression on CD8+ RevCAR-T, co-culture with MV4-11, Donor #3: 7.2 pM
  EC50 of R-TM123 for CD25 expression on CD8+ RevCAR-T, co-culture with MV4-11, Donor #4: 5.1 pM
  EC50 of R-TM123 for CD25 expression on CD8+ RevCAR-T, co-culture with MV4-11, Mean: 5.8 pM
  EC50 of R-TM123 for CD25 expression on CD8+ RevCAR-T, co-culture with OCI-AML3, Donor #1: 8.7 pM
  EC50 of R-TM123 for CD25 expression on CD8+ RevCAR-T, co-culture with OCI-AML3, Donor #2: 15.7 pM
  EC50 of R-TM123 for CD25 expression on CD8+ RevCAR-T, co-culture with OCI-AML3, Donor #3: 14.6 pM
  EC50 of R-TM123 for CD25 expression on CD8+ RevCAR-T, co-culture with OCI-AML3, Donor #4: 4.8 pM
  EC50 of R-TM123 for CD25 expression on CD8+ RevCAR-T, co-culture with OCI-AML3, Mean: 11 pM
[2]
  EC50 of R-TM123 for RevCAR-T mediated lysis of MOLM-13, Donor #1: 1.3 pM
  EC50 of R-TM123 for RevCAR-T mediated lysis of MOLM-13, Donor #2: 2.2 pM
  EC50 of R-TM123 for RevCAR-T mediated lysis of MOLM-13, Donor #3: 2.6 pM
  EC50 of R-TM123 for RevCAR-T mediated lysis of MOLM-13, Donor #4: 1 pM
  EC50 of R-TM123 for RevCAR-T mediated lysis of MOLM-13, Mean: 1.8 pM
  EC50 of R-TM123 for RevCAR-T mediated lysis of MV4-11, Donor #1: 2.8 pM
